Measured values from the supplement of paper PMC9112550, “Optimization of the antimicrobial peptide Bac7 by deep mutational scanning” (BMC Biology, 2022).

test system: Escherichia coli TOP10; test: shrunken log2 fold change of peptide-encoding DNA abundance (4.5 h post-induction vs induction); higher = less antimicrobial activity (less host growth inhibition); conditions: time post-induction: 4.5 h; library: site-saturation at positions 5, 18, 19, 20
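Further: peptides expressed intracellularly from a pBAD plasmid library in pooled LB shake-flask culture, induced with 0.3% L-arabinose, DNA abundance read by NGS, three biological replicates, DESeq2 with apeglm shrinkage.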

RRIRHRPPRLPRPRPRPENAPRP and RRIRSRPPRLPRPRPRPTRKPRP are within 0.2 log units of each other in “shrunken log2 fold change” value: 0.14 for the first, 0.138 for the second.

Going from RRIRHRPPRLPRPRPRPPLGPRP to RRIRYRPPRLPRPRPRPDISPRP, the “shrunken log2 fold change” value falls from 0.25 to -0.415.

Going from RRIRYRPPRLPRPRPRPPYEPRP to RRIRLRPPRLPRPRPRPGTIPRP, the “shrunken log2 fold change” value falls from -0.0831 to -0.689.

RRIRHRPPRLPRPRPRPLACPRP and RRIRKRPPRLPRPRPRPKDRPRP are within 0.2 log units of each other in “shrunken log2 fold change” value: 0.0188 for the first, 0.088 for the second.

Going from RRIRWRPPRLPRPRPRPQTPPRP to RRIRYRPPRLPRPRPRPHETPRP, the “shrunken log2 fold change” value falls from 1.07 to -0.0345.

Compared with RRIRKRPPRLPRPRPRPKDWPRP, RRIRERPPRLPRPRPRPTLHPRP is lower in “shrunken log2 fold change” value: 0.742 for the first, -0.0201 for the second.

RRIRRRPPRLPRPRPRPYKVPRP and RRIRERPPRLPRPRPRPTDFPRP are within 0.2 log units of each other in “shrunken log2 fold change” value: -0.193 for the first, -0.13 for the second.

Compared with RRIRMRPPRLPRPRPRPATAPRP, RRIRMRPPRLPRPRPRPCTTPRP is lower in “shrunken log2 fold change” value: 1.17 for the first, 0.104 for the second.

RRIRWRPPRLPRPRPRPSMIPRP and RRIRARPPRLPRPRPRPHWAPRP are within 0.2 log units of each other in “shrunken log2 fold change” value: -0.12 for the first, -0.0191 for the second.

Compared with RRIRFRPPRLPRPRPRPAWRPRP, RRIRERPPRLPRPRPRPDNQPRP is lower in “shrunken log2 fold change” value: 0.765 for the first, -0.459 for the second.

First: RRIRERPPRLPRPRPRPVYMPRP
Second: RRIRHRPPRLPRPRPRPWQSPRP
The “shrunken log2 fold change” value of the first is lower: -0.481 for the first, -0.0359 for the second.

RRIRRRPPRLPRPRPRPNYSPRP and RRIRPRPPRLPRPRPRPTNQPRP are within 0.2 log units of each other in “shrunken log2 fold change” value: -0.0871 for the first, -0.182 for the second.

RRIRFRPPRLPRPRPRPTGLPRP and RRIRARPPRLPRPRPRPQMVPRP are within 0.2 log units of each other in “shrunken log2 fold change” value: -0.118 for the first, -0.0332 for the second.

First: RRIRGRPPRLPRPRPRPWTWPRP
Second: RRIRGRPPRLPRPRPRPNGCPRP
The “shrunken log2 fold change” value of the first is higher: 0.339 for the first, 0.12 for the second.

Going from RRIRKRPPRLPRPRPRPPEDPRP to RRIRARPPRLPRPRPRPWWEPRP, the “shrunken log2 fold change” value falls from 3.39 to 0.37.

RRIRERPPRLPRPRPRPATYPRP and RRIRYRPPRLPRPRPRPLNLPRP are within 0.2 log units of each other in “shrunken log2 fold change” value: -0.275 for the first, -0.369 for the second.

RRIRFRPPRLPRPRPRPKMWPRP and RRIRERPPRLPRPRPRPKSPPRP are within 0.2 log units of each other in “shrunken log2 fold change” value: 0.348 for the first, 0.163 for the second.

Going from RRIRERPPRLPRPRPRPRITPRP to RRIRQRPPRLPRPRPRPQTLPRP, the “shrunken log2 fold change” value rises from -0.578 to -0.319.

Going from RRIRGRPPRLPRPRPRPAWPPRP to RRIRQRPPRLPRPRPRPSVFPRP, the “shrunken log2 fold change” value falls from 0.892 to -0.143.

First: RRIRHRPPRLPRPRPRPLPRPRP
Second: RRIRRRPPRLPRPRPRPQLQPRP
The “shrunken log2 fold change” value of the first is lower: 0.176 for the first, 0.413 for the second.

Going from RRIRCRPPRLPRPRPRPLGSPRP to RRIRLRPPRLPRPRPRPTGIPRP, the “shrunken log2 fold change” value rises from -0.423 to -0.182.

First: RRIRSRPPRLPRPRPRPWPKPRP
Second: RRIRIRPPRLPRPRPRPVTIPRP
The “shrunken log2 fold change” value of the first is higher: 0.228 for the first, 0.00236 for the second.

Going from RRIRRRPPRLPRPRPRPAATPRP to RRIRPRPPRLPRPRPRPYHDPRP, the “shrunken log2 fold change” value falls from 0.335 to -0.0378.

RRIRDRPPRLPRPRPRPEEYPRP and RRIRPRPPRLPRPRPRPMQVPRP are within 0.2 log units of each other in “shrunken log2 fold change” value: 0.0208 for the first, -0.012 for the second.

RRIRCRPPRLPRPRPRPNGPPRP and RRIRYRPPRLPRPRPRPEWYPRP are within 0.2 log units of each other in “shrunken log2 fold change” value: -0.00954 for the first, -0.00146 for the second.

Compared with RRIRGRPPRLPRPRPRPNTQPRP, RRIRKRPPRLPRPRPRPQQSPRP is lower in “shrunken log2 fold change” value: 0.224 for the first, -0.0568 for the second.

RRIRGRPPRLPRPRPRPQFVPRP and RRIRRRPPRLPRPRPRPICPPRP are within 0.2 log units of each other in “shrunken log2 fold change” value: 0.0536 for the first, -0.0986 for the second.

Going from RRIRGRPPRLPRPRPRPYKGPRP to RRIRARPPRLPRPRPRPDTTPRP, the “shrunken log2 fold change” value rises from -0.236 to 0.0242.

RRIRKRPPRLPRPRPRPMNLPRP and RRIRCRPPRLPRPRPRPTEVPRP are within 0.2 log units of each other in “shrunken log2 fold change” value: -0.223 for the first, -0.135 for the second.

Going from RRIRYRPPRLPRPRPRPLVVPRP to RRIRFRPPRLPRPRPRPADCPRP, the “shrunken log2 fold change” value rises from -0.72 to -0.282.

Going from RRIRKRPPRLPRPRPRPVGRPRP to RRIRCRPPRLPRPRPRPLPLPRP, the “shrunken log2 fold change” value falls from 0.21 to -0.0103.

Compared with RRIRSRPPRLPRPRPRPIAEPRP, RRIRHRPPRLPRPRPRPICEPRP is lower in “shrunken log2 fold change” value: -0.0272 for the first, -0.369 for the second.

Going from RRIRLRPPRLPRPRPRPPMEPRP to RRIRDRPPRLPRPRPRPLVDPRP, the “shrunken log2 fold change” value falls from 0.347 to 0.11.

Compared with RRIRTRPPRLPRPRPRPQKNPRP, RRIRERPPRLPRPRPRPRHCPRP is higher in “shrunken log2 fold change” value: -0.419 for the first, -0.133 for the second.

RRIRERPPRLPRPRPRPPRAPRP and RRIRMRPPRLPRPRPRPAINPRP are within 0.2 log units of each other in “shrunken log2 fold change” value: 0.453 for the first, 0.321 for the second.

First: RRIRQRPPRLPRPRPRPAIPPRP
Second: RRIRTRPPRLPRPRPRPKVWPRP
The “shrunken log2 fold change” value of the first is lower: 0.0602 for the first, 0.325 for the second.

RRIRWRPPRLPRPRPRPCFFPRP and RRIRTRPPRLPRPRPRPACRPRP are within 0.2 log units of each other in “shrunken log2 fold change” value: 0.0878 for the first, 0.206 for the second.

First: RRIRLRPPRLPRPRPRPLKMPRP
Second: RRIRHRPPRLPRPRPRPLISPRP
The “shrunken log2 fold change” value of the first is higher: 1.29 for the first, -0.387 for the second.

RRIRSRPPRLPRPRPRPEWWPRP and RRIRQRPPRLPRPRPRPPTHPRP are within 0.2 log units of each other in “shrunken log2 fold change” value: 0.0594 for the first, 0.106 for the second.

Going from RRIRWRPPRLPRPRPRPCAMPRP to RRIRPRPPRLPRPRPRPSVSPRP, the “shrunken log2 fold change” value falls from -0.272 to -0.504.

RRIRHRPPRLPRPRPRPHFDPRP and RRIRDRPPRLPRPRPRPPSYPRP are within 0.2 log units of each other in “shrunken log2 fold change” value: -0.107 for the first, -0.222 for the second.

RRIRQRPPRLPRPRPRPWHGPRP and RRIRGRPPRLPRPRPRPLYYPRP are within 0.2 log units of each other in “shrunken log2 fold change” value: 0.0373 for the first, -0.13 for the second.

First: RRIRMRPPRLPRPRPRPWIEPRP
Second: RRIRRRPPRLPRPRPRPRAGPRP
The “shrunken log2 fold change” value of the first is lower: -0.092 for the first, 0.638 for the second.

Going from RRIRTRPPRLPRPRPRPYSMPRP to RRIRQRPPRLPRPRPRPVKTPRP, the “shrunken log2 fold change” value rises from -2.42 to 0.139.

Going from RRIRMRPPRLPRPRPRPCVNPRP to RRIRPRPPRLPRPRPRPTCHPRP, the “shrunken log2 fold change” value rises from -0.111 to 1.02.

RRIRLRPPRLPRPRPRPITNPRP was tested, and the “shrunken log2 fold change” value was -0.391.
